Biological target: SARS-CoV-2 spike receptor-binding domain (SARS-CoV-2-RBD, ~35 kDa) (SARS-CoV-2, UniProt P0DTC2 319-541)
Experiment: electrochemical impedance spectroscopy (Langmuir isotherm)

B1: thiol-terminal SARS-CoV-2-RBD aptamer (ssDNA)
DNA: CAGCACCGACCTTGTGCTTTGGGAGTGCTGGTCCAAGGGCGTTAATGGACA
modifications: 5' SH-(CH2)6 thiol
In the case of B1, the Kd is reported as 0.42 nM.
